The source of these data is PMC4299515.

The target of test [1] is full-length HP1β (heterochromatin protein 1 beta) (UniProt P83917). The test is described as follows: AUC; sedimentation velocity, c(s) distribution, 8–30 μM protein, physiological ionic strength; no larger complexes than the dimer up to 30 μM.
Test [2] has the same target. The test is described as follows: AUC; sedimentation velocity at lower concentrations (two peaks in c(s)); KD from the relative molar fractions of monomer and dimer; dimer to monomers; physiological ionic strength.
In test [3] the target is isolated chromoshadow-domain (CSD) of HP1β. The test is described as follows: AUC; sedimentation velocity, c(s) distribution, 8–30 μM protein, physiological ionic strength; no larger complexes than the dimer up to 30 μM.

For orientation: stoichiometry N means a count of units in the complex or per binding partner. By Kd is commonly meant the free concentration of one partner at which half of the binding sites on the other are occupied at equilibrium, for simple one-to-one binding. High values mean a looser complex, low ones a tighter complex.

Sequence of full-length HP1β (heterochromatin protein 1 beta), P83917 1-185 (natural protein; other documents disagree on this pair) (P83917 whole entry): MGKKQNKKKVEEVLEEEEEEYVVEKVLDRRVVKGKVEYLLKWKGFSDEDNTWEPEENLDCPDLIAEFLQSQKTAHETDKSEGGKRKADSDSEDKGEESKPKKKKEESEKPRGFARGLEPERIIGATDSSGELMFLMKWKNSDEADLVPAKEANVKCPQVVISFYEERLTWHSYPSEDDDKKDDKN
Sequence of isolated chromoshadow-domain (CSD) of HP1β (domain or fragment) (P83916 whole entry, the tested form may be a part): as the sequence (P83917 whole entry) above

In test [1], “full-length HP1β (heterochromatin protein 1 beta), P83917 1-185 (natural protein; other documents disagree on this pair)” registered a stoichiometry N of 2. In test [2], this substance yielded a Kd of 1000 to 2000 nM.
In turn, “isolated chromoshadow-domain (CSD) of HP1β (domain or fragment)” gave a stoichiometry N in test [3] of 2.
